Measurements as given in the supplement of paper PMC9170038.

Test system: MS2 coat protein
Experiment: apparent KD of MS2 coat protein; designed switch direction (-1 OFF switch, 1 ON switch): -1; higher = weaker reporter binding
In short: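 Designed RNA switches with common flanks were transcribed on Illumina chips by stalled E. coli RNA polymerase and titrated with SNAP-549-labelled MS2 coat protein, from 0.7 or 1.5 nM doubling to 3 µM, in Tris-HCl pH 7.5 buffer with KCl, MgCl2, BSA, DTT, tRNA and Tween-20. Steps lasted 0.8–1.5 h (lowest) to 10–20 min (highest). Titrations ran without input, with 200 uM small-molecule ligand, or with an oligonucleotide input. Normalised cluster fluorescence was curve-fitted, and apparent KD is the per-design median over clusters.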

[1] = input ligand: microRNA oligo, concentration not stated
[2] = Eterna round: R95, input ligand: microRNA oligo, concentration not stated

| Sequence | apparent KD of MS2 coat protein (input ligand: FMN 200 uM) [nM] | apparent KD of MS2 coat protein [1] [nM] | apparent KD of MS2 coat protein (input ligand: none) [nM] | apparent KD of MS2 coat protein [2] [nM] |
| --- | --- | --- | --- | --- |
| GUACCAAAUGUAGGAUAUGGAUCCGAUUAGGAUCCAGAAGGACAUGAGGAUCACCCAUGUACAUGAGGAUCACCCAUUAGGUAC [Fiskers ExNg1 - 11] (Eterna round: R96, puzzle: Exclusion NG 1) | 97.2 | 26.3 | 34.2 | – |
| GUACUACAUGAGGAUCACCCAUGUCAGGAUAUGCGAAUUUCAUCAAAAGAUGAAAUUUGCAGAAGGGACAGUAC [Omei Ex1 A1] (Eterna round: R97, puzzle: Exclusion 1) | 35.3 | – | 24.1 | – |
| GUACUAGAAUAUCAGUCGCACAUGAGGAUCACCCAUGUCAUGGGUAGAUCAAUAAAUAAAGAUACUGCUCGUCUUAU [Cac sensor turnoff var1 sub2] (Eterna round: R97, puzzle: Sensor, turn-off variant 1) | 496 | – | 378 | – |
| GUACUGAAGCUUUGCUUUAGUCGUACAUGAGGAUCACCCAUGUAGGAUAUGGUAGGCAUAGCUUACUAGAAGGAUAGAGUGAUC [Mat - Exclusion NG 3 - Mod of JL - D64] (Eterna round: R96, puzzle: Exclusion NG 3) | 112 | 86 | 81.3 | – |
| GUACUGACAGGAUAUACAUGAGGAUCACCCAUGUGCCCUUAAAGAUGCAAAGCAUCAAGUAGAAGGGUCUGUAC [Omei Ex3 Model Bachelor's Dilema v21] (Eterna round: R97, puzzle: Exclusion 3) | 53 | – | 40.5 | – |
| GUAGAGUAAGGAUAUGCUGAAUAGGAUAGAAUGGUUAGAAAGCAGAAGGUACAUGAGGAUCACCCAUGUAAUGU [Excluse me!!!! 18 - Jieux - Exclusion 4] (puzzle: Exclusion 4) | – | – | – | 20 |
| GUAGAGUCAGGAUAUACAAGAUCGAUAGAUCAAAGACCCAUACAUGAGGAUCACCCAUGUAGAAGGGACUCUAC [Mat - Exclusion 2 - Eli Mod - D11] (Eterna round: R97, puzzle: Exclusion 2) | 23 | – | 18.7 | – |
| GUAGAGUCAGGAUAUACGAGAUCGAAAGAUCGGCGAUCCCUACAUGAGGAUCACCCAUGUAGAAGGGACUCUAC [Eli x2 4.12] (Eterna round: R97, puzzle: Exclusion 2) | 28.7 | – | 14.9 | – |
| GUAGAUCGAGUUAGGAUAUGAUUAAAAUCCGGAUAUCAGAAGGAACUUGAGGAUCACCCAAGUAUAGAUGAUUC [JR_BMEx4_Sub056] (Eterna round: R97, puzzle: Brourd's mod of Exclusion 4) | 216 | – | 47.9 | – |
| GUAGGGUCAGGAUAUACUGGCUGAGGGAUGUAUUGUAGUUGGUAGAAGGGACAUGAGGAUCACCCAUGUAAGAA [JR_Exclu4_Sub056] (puzzle: Exclusion 4) | – | – | – | 31.6 |
| GUAUAUAGUGUGAGGAUAUGCUGGUCCUUGGAUCAGCAGAAGGCACAUGAGGAUCACCCAUGUAGUUUAUUUUA [Mat - Exclusion 4 - JL Mod - D3] (puzzle: Brourd's mod of Exclusion 4) | – | – | – | 25.8 |
| GUAUUUUGAGGAUAUACAUGAGGAUCACCCAUGUGUCGUAGCGCCAGCCUUAAUACGUGUAGAAGGCAGAAUGU [Eternabot (L1) Solution 75] (Eterna round: R97, puzzle: Exclusion 3) | 20 | – | 34 | – |
| GUCAGCUCGUCAGGAUAUACAUGAGGAUCACCCAUGUGAUCAAUAGCAGCUUCGGCUGCAUACAUGUAGAAGGGACGAGCUGAU [ENG2/6-B2] (Eterna round: R96, puzzle: Exclusion NG 2) | 195 | 15.3 | 160 | – |
| GUCAGCUCGUGAGGAUAUACAUGAGGAUCACCCAUGUGAUCAAUAGCAGCUUCGGCUGCAUACAUGUAGAAGGCACGAGCUGAC [ENG2/6-A1] (Eterna round: R96, puzzle: Exclusion NG 2) | 22.4 | 19.7 | 28.5 | – |
| GUCAGCUCGUGAGGAUAUACAUGAGGAUCACCCAUGUGGUCAAUAGCAGCUUCGGCUGCAAUAAUGUAGAAGGCACGAGCUGAC [ENG2/8-D] (Eterna round: R96, puzzle: Exclusion NG 2) | 57.4 | 1030 | 208 | – |
| GUCAGCUCGUGAGGAUAUACAUGCGUGCUUCGGCACGAAUUUAAGAUCACAUGAGGAUCACCCAUGUAGAAGGUACGAGCUGAU [ENG2/3-C2] (Eterna round: R96, puzzle: Exclusion NG 2) | 590 | 320 | 387 | – |
